Test results: PMC3089455
Each block holds one substance with its values, some of them ahead of it.

Key:
[1] = molecular target: Aeromonas hydrophila AhQnr (Aeromonas hydrophila ATCC 7966); experiment: AUC
[2] = molecular target: AhQnr Δdouble deletion mutant (both loops removed) with C-terminal hexahistidine tag (Aeromonas hydrophila ATCC 7966); experiment: SEC
[3] = molecular target: AhQnr Δloop2 deletion mutant with C-terminal hexahistidine tag (Aeromonas hydrophila ATCC 7966); experiment: SEC
[4] = molecular target: AhQnr Δloop1 deletion mutant with C-terminal hexahistidine tag (Aeromonas hydrophila ATCC 7966); experiment: SEC

stoichiometry N [1]: 2
Substance: Aeromonas hydrophila AhQnr (natural protein)

stoichiometry N [2]: 2
Substance: AhQnr Δdouble deletion mutant (both loops removed) with C-terminal hexahistidine tag (natural protein)

stoichiometry N [3]: 2
Substance: AhQnr Δloop2 deletion mutant with C-terminal hexahistidine tag (natural protein)

stoichiometry N [4]: 2
Substance: AhQnr Δloop1 deletion mutant with C-terminal hexahistidine tag (natural protein)
